# The supplement of paper PMC5998384
# Key:
# HeLa Kyoto [1] = assay: melting temperature (median over replicates), in situ; higher = more thermally stable
# HeLa Kyoto [2] = assay: solubility change mitosis vs G1/S (difference of NP-40 vs SDS log2 ratios) (log2 ratio difference); higher = more soluble in mitosis
# HeLa Kyoto [3] = assay: thermal stability score vs G1/S (z-score of summed log2 fold changes over temperatures); higher = more thermally stable than in G1/S
# HeLa Kyoto [4] = assay: solubility in G1/S (NP-40 vs SDS abundance) (log2 ratio); higher = more soluble; conditions: cell cycle stage: G1/S
# [5] = cell cycle stage: early G1 (4.5 h after nocodazole release)
# 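Throughout, for melting temperature (median over replicates), in situ: HeLa Kyoto cells synchronized by double thymidine or nocodazole block, proteins quantified by TMT10plex mass spectrometry, three independent biological replicates.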
# 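Throughout, for solubility change mitosis vs G1/S (difference of NP-40 vs SDS log2 ratios): synchronized HeLa Kyoto cells (double thymidine block for G1/S, nocodazole release for mitosis), protein amounts in NP-40 versus SDS lysates quantified by mass spectrometry, three biological replicates.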
# 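Throughout, for solubility in G1/S (NP-40 vs SDS abundance): HeLa Kyoto cells arrested at G1/S by double thymidine block, proteins quantified by TMT10plex mass spectrometry in mild NP-40 versus SDS extracts, three biological replicates.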
# 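Throughout, for thermal stability score vs G1/S (z-score of summed log2 fold changes over temperatures): synchronized HeLa Kyoto cells, proteins quantified by TMT10plex mass spectrometry, three biological replicates, mitosis taken 0.5 h after nocodazole release, G1/S directly after double thymidine block.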
Sequence,melting temperature (HeLa Kyoto [1]; cell cycle stage: G1/S) [°C],melting temperature (HeLa Kyoto [1]; cell cycle stage: mitosis) [°C],solubility change mitosis (log2) (HeLa Kyoto [2]),thermal stability score (HeLa Kyoto [3]; [5]),thermal stability score (HeLa Kyoto [3]; cell cycle stage: mitosis),solubility in G1/S (log2) (HeLa Kyoto [4])
MGSPEDDLIGIPFPDHSSELLSCLNEQRQLGHLCDLTIRTQGLEYRTHRAVLAACSHYFKKLFTEGGGGAVMGAGGSGTATGGAGAGVCELDFVGPEALGALLEFAYTATLTTSSANMPAVLQAARLLEIPCVIAACMEILQGSGLEAPSPDEDDCERARQYLEAFATATASGVPNGEDSPPQVPLPPPPPPPPRPVARRSRKPRKAFLQTKGARANHLVPEVPTVPAHPLTYEEEEVAGRVGSSGGSGPGDSYSPPTGTASPPEGPQSYEPYEGEEEEEELVYPPAYGLAQGGGPPLSPEELGSDEDAIDPDLMAYLSSLHQDNLAPGLDSQDKLVRKRRSQMPQECPVCHKIIHGAGKLPRHMRTHTGEKPFACEVCGVRFTRNDKLKIHMRKHTGERPYSCPHCPARFLHSYDLKNHMHLHTGDRPYECHLCHKAFAKEDHLQRHLKGQNCLEVRTRRRRKDDAPPHYPPPSTAAASPAGLDLSNGHLDTFRLSLARFWEQSAPTGPPVSTPGPPDDDEEEGAPTTPQAEGAMESS [ZBTB7B],54.7,55,0.171,1.42,0.814,-0.127
MGSPLRFDGRVVLVTGAGAGLGRAYALAFAERGALVVVNDLGGDFKGVGKGSLAADKVVEEIRRRGGKAVANYDSVEEGEKVVKTALDAFGRIDVVVNNAGILRDRSFARISDEDWDIIHRVHLRGSFQVTRAAWEHMKKQKYGRIIMTSSASGIYGNFGQANYSAAKLGLLGLANSLAIEGRKSNIHCNTIAPNAGSRMTQTVMPEDLVEALKPEYVAPLVLWLCHESCEENGGLFEVGAGWIGKLRWERTLGAIVRQKNHPMTPEAVKANWKKICDFENASKPQSIQESTGSIIEVLSKIDSEGGVSANHTSRATSTATSGFAGAIGQKLPPFSYAYTELEAIMYALGVGASIKDPKDLKFIYEGSSDFSCLPTFGVIIGQKSMMGGGLAEIPGLSINFAKVLHGEQYLELYKPLPRAGKLKCEAVVADVLDKGSGVVIIMDVYSYSEKELICHNQFSLFLVGSGGFGGKRTSDKVKVAVAIPNRPPDAVLTDTTSLNQAALYRLSGDWNPLHIDPNFASLAGFDKPILHGLCTFGFSARRVLQQFADNDVSRFKAIKARFAKPVYPGQTLQTEMWKEGNRIHFQTKVQETGDIVISNAYVDLAPTSGTSAKTPSEGGKLQSTFVFEEIGRRLKDIGPEVVKKVNAVFEWHITKGGNIGAKWTIDLKSGSGKVYQGPAKGAADTTIILSDEDFMEVVLGKLDPQKAFFSGRLKARGNIMLSQKLQMILKDYAKL [HSD17B4],54.2,54.1,-0.0933,0.589,0.868,0.00461
MGVQPPNFSWVLPGRLAGLALPRLPAHYQFLLDLGVRHLVSLTERGPPHSDSCPGLTLHRLRIPDFCPPAPDQIDRFVQIVDEANARGEAVGVHCALGFGRTGTMLACYLVKERGLAAGDAIAEIRRLRPGSIETYEQEKAVFQFYQRTK [DUSP23],52.5,52.9,-0.112,0.571,-0.468,0.00547
MGVRGLQGFVGSTCPHICTVVNFKELAEHHRSKYPGCTPTIVVDAMCCLRYWYTPESWICGGQWREYFSALRDFVKTFTAAGIKLIFFFDGMVEQDKRDEWVKRRLKNNREISRIFHYIKSHKEQPGRNMFFIPSGLAVFTRFALKTLGQETLCSLQEADYEVASYGLQHNCLGILGEDTDYLIYDTCPYFSISELCLESLDTVMLCREKLCESLGLCVADLPLLACLLGNDIIPEGMFESFRYKCLSSYTSVKENFDKKGNIILAVSDHISKVLYLYQGEKKLEEILPLGPNKALFYKGMASYLLPGQKSPWFFQKPKGVITLDKQVISTSSDAESREEVPMCSDAESRQEVPMCTGPESRREVPVYTDSEPRQEVPMCSDPEPRQEVPTCTGPESRREVPMCSDPEPRQEVPMCTGPEARQEVPMYTDSEPRQEVPMYTDSEPRQEVPMYTGSEPRQEVPMYTGPESRQEVPMYTGPESRQEVLIRTDPESRQEIMCTGHESKQEVPICTDPISKQEDSMCTHAEINQKLPVATDFEFKLEALMCTNPEIKQEDPTNVGPEVKQQVTMVSDTEILKVARTHHVQAESYLVYNIMSSGEIECSNTLEDELDQALPSQAFIYRPIRQRVYSLLLEDCQDVTSTCLAVKEWFVYPGNPLRHPDLVRPLQMTIPGGTPSLKILWLNQEPEIQVRRLDTLLACFNLSSSREELQAVESPFQALCCLLIYLFVQVDTLCLEDLHAFIAQALCLQGKSTSQLVNLQPDYINPRAVQLGSLLVRGLTTLVLVNSACGFPWKTSDFMPWNVFDGKLFHQKYLQSEKGYAVEVLLEQNRSRLTKFHNLKAVVCKACMKENRRITGRAHWGSHHAGRWGRQGSSYHRTGSGYSRSSQGQPWRDQGPGSRQYEHDQWRRY [FAM120B],50.2,49.1,-0.0624,1.29,1.3,-0.319
MHGRLKVKTSEEQAEAKRLEREQKLKLYQSATQAVFQKRQAGELDESVLELTSQILGANPDFATLWNCRREVLQQLETQKSPEELAALVKAELGFLESCLRVNPKSYGTWHHRCWLLGRLPEPNWTRELELCARFLEVDERNFHCWDYRRFVATQAAVPPAEELAFTDSLITRNFSNYSSWHYRSCLLPQLHPQPDSGPQGRLPEDVLLKELELVQNAFFTDPNDQSAWFYHRWLLGRADPQDALRCLHVSRDEACLTVSFSRPLLVGSRMEILLLMVDDSPLIVEWRTPDGRNRPSHVWLCDLPAASLNDQLPQHTFRVIWTAGDVQKECVLLKGRQEGWCRDSTTDEQLFRCELSVEKSTVLQSELESCKELQELEPENKWCLLTIILLMRALDPLLYEKETLQYFQTLKAVDPMRATYLDDLRSKFLLENSVLKMEYAEVRVLHLAHKDLTVLCHLEQLLLVTHLDLSHNRLRTLPPALAALRCLEVLQASDNAIESLDGVTNLPRLQELLLCNNRLQQPAVLQPLASCPRLVLLNLQGNPLCQAVGILEQLAELLPSVSSVLT [RABGGTA],53.8,53.3,-0.067,-0.496,-1.06,0.0201
